Reference: paper PMC3352918, “Mechanism of Nucleic Acid Unwinding by SARS-CoV Helicase” (PLoS ONE, 2012)

Molecular target: T1, GST-nsp13 (Glutathione S-Transferase-tagged nsp13 of SARS-CoV) (SARS-CoV, UniProt P0C6X7 5302-5902)
T1 construct: also called SARS-CoV helicase; non-structural protein 13; not shown: GST, N-terminal, kept
Assay: pull-down
Settings: both partners purified

B1: nsp12-H6 (C-terminal hexahistidine containing nsp12, SARS-CoV RNA-dependent RNA polymerase) (enzyme)
chain: SADASTFLNRVCGVSAARLTPCGTGTSTDVVYRAFDIYNEKVAGFAKFLKTNCCRFQEKDEEGNLLDSYFVVKRHTMSNYQHEETIYNLVKDCPAVAVHDFFKFRVDGDMVPHISRQRLTKYTMADLVYALRHFDEGNCDTLKEILVTYNCCDDDYFNKKDWYDFVENPDILRVYANLGERVRQSLLKTVQFCDAMRDAGIVGVLTLDNQDLNGNWYDFGDFVQVAPGCGVPIVDSYYSLLMPILTLTRALAAESHMDADLAKPLIKWDLLKYDFTEERLCLFDRYFKYWDQTYHPNCINCLDDRCILHCANFNVLFSTVFPPTSFGPLVRKIFVDGVPFVVSTGYHFRELGVVHNQDVNLHSSRLSFKELLVYAADPAMHAASGNLLLDKRTTCFSVAALTNNVAFQTVKPGNFNKDFYDFAVSKGFFKEGSSVELKHFFFAQDGNAAISDYDYYRYNLPTMCDIRQLLFVVEVVDKYFDCYDGGCINANQVIVNNLDKSAGFPFNKWGKARLYYDSMSYEDQDALFAYTKRNVIPTITQMNLKYAISAKNRARTVAGVSICSTMTNRQFHQKLLKSIAATRGATVVIGTSKFYGGWHNMLKTVYSDVETPHLMGWDYPKCDRAMPNMLRIMASLVLARKHNTCCNLSHRFYRLANECAQVLSEMVMCGGSLYVKPGGTSSGDATTAYANSVFNICQAVTANVNALLSTDGNKIADKYVRNLQHRLYECLYRNRDVDHEFVDEFYAYLRKHFSMMILSDDAVVCYNSNYAAQGLVASIKNFKAVLYYQNNVFMSEAKCWTETDLTKGPHEFCSQHTMLVKQGDDYVYLPYPDPSRILGAGCFVDDIVKTDGTLMIERFVSLAIDAYPLTKHPNQEYADVFHLYLQYIRKLHDELTGHMLDMYSVMLTNDNTSRYWEPEFYEAMYTPHTVLQ
notes: also called SARS-CoV polymerase; SARS-CoV RdRp
  binding result: binds
